Source: the supplement of paper PMC9233669
Variants at the floor of the assay were thinned out.

How the values were obtained:
biotinyl-Phe-oxazolone = experiment: self-aminoacylation, catalytic enhancement (BFO) (fold over background); higher = more active; k-Seq, kA / k0A0; sequences stand for … in GGGAAUGGAUCCACAUCUACGAAUUC…UUCACUGCAGACUUGACGAAGCUG
Outline: (§1)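 Working in 50 μL HEPES/NaCl/KCl/MgCl2/CaCl2 buffer with 5% acetonitrile at pH 6.9–7.0, mutagenized RNA pools (0.43 μM; 21-nt variable region) were reacted with 2–1250 μM of each biotinyl-aminoacyl-oxazolone for 90 minutes at room temperature. Streptavidin capture followed, with quantification by triplicate qPCR and Illumina sequencing. Catalytic enhancement is reported as median kA over the uncatalyzed rate, the low-activity peak of a bimodal Gaussian fit to the data.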

biotinyl-Ile-oxazolone = experiment: self-aminoacylation, catalytic enhancement (BIO) (fold over background); higher = more active; k-Seq, kA / k0A0; sequences stand for … in GGGAAUGGAUCCACAUCUACGAAUUC…UUCACUGCAGACUUGACGAAGCUG
Outline: as §1

biotinyl-Met-oxazolone = experiment: self-aminoacylation, catalytic enhancement (BMO) (fold over background); higher = more active; k-Seq, kA / k0A0; sequences stand for … in GGGAAUGGAUCCACAUCUACGAAUUC…UUCACUGCAGACUUGACGAAGCUG
Outline: as §1

biotinyl-Val-oxazolone = experiment: self-aminoacylation, catalytic enhancement (BVO) (fold over background); higher = more active; k-Seq, kA / k0A0; sequences stand for … in GGGAAUGGAUCCACAUCUACGAAUUC…UUCACUGCAGACUUGACGAAGCUG
Outline: as §1

biotinyl-Leu-oxazolone = experiment: self-aminoacylation, catalytic enhancement (BLO) (fold over background); higher = more active; k-Seq, kA / k0A0; sequences stand for … in GGGAAUGGAUCCACAUCUACGAAUUC…UUCACUGCAGACUUGACGAAGCUG
Outline: as §1

biotinyl-Trp-oxazolone = experiment: self-aminoacylation, catalytic enhancement (BWO) (fold over background); higher = more active; k-Seq, kA / k0A0; sequences stand for … in GGGAAUGGAUCCACAUCUACGAAUUC…UUCACUGCAGACUUGACGAAGCUG
Outline: as §1

Row | Sequence | self-aminoacylation (biotinyl-Phe-oxazolone) | self-aminoacylation (biotinyl-Ile-oxazolone) | self-aminoacylation (biotinyl-Met-oxazolone) | self-aminoacylation (biotinyl-Val-oxazolone) | self-aminoacylation (biotinyl-Leu-oxazolone) | self-aminoacylation (biotinyl-Trp-oxazolone)
1 | AGUCACCUAGGUCAUCGGGCG [Fam2.2 aminoacylation ribozyme variant] | 25.5 | 4.56 | 5.28 | 4.05 | 4.87 | 5.95
2 | AGUCACCUAGGUCAUCGGGGG [Fam2.2 aminoacylation ribozyme variant] | 17.5 | 3.13 | 3.3 | 2.9 | 3.14 | 3.68
3 | AGUCACCUAGGUCAUCGGUUG [Fam2.2 aminoacylation ribozyme variant] | 10.1 | 1.83 | 1.99 | 1.71 | 2.12 | 1.82
4 | AGUCACCUAGGUCGUCGGGUG [Fam2.2 aminoacylation ribozyme variant] | 12.9 | 2.48 | 2.28 | 2.43 | 4.29 | 2.71
5 | AGUCACCUAGGUGAUCGGGUG [Fam2.2 aminoacylation ribozyme variant] | 24.3 | 4.34 | 4.24 | 4.38 | 5.45 | 6.05
6 | AGUCUCCUAGGUCAUCGGGUG [Fam2.2 aminoacylation ribozyme variant] | 58.7 | 5.63 | 9.95 | 6.91 | 12.9 | 9.36
7 | AGUUCCCUGGUCAUCGAGUGA [Fam2.1 aminoacylation ribozyme variant] | 43.9 | 4.54 | 7.95 | 5 | 9.8 | 10.9
8 | AGUUUUGCUAAUAGUCGCAAG [Fam3.1 aminoacylation ribozyme variant] | 4.55 | 2.4 | 2.35 | 2.1 | 2.61 | 3.48
9 | AUAAACCUGGUCAUCGAGUGA [Fam2.1 aminoacylation ribozyme variant] | 11.4 | 4.13 | 7.78 | 4.1 | 8.44 | 9.62
10 | AUAACACUGGUCAUCGAGUGA [Fam2.1 aminoacylation ribozyme variant] | 14.7 | 2.83 | 4.84 | 3.06 | 4.62 | 6.89
11 | AUAACCCCGGUCAUCGAGUGA [Fam2.1 aminoacylation ribozyme variant] | 32.9 | 3.75 | 7.41 | 3.32 | 7.29 | 6.89
12 | AUAACCCUGGUCAUCAAGUGA [Fam2.1 aminoacylation ribozyme variant] | 2.73 | 1.45 | 2.3 | 1.27 | 2.24 | 2.39
13 | AUAACCCUGGUCAUCGAGUGG [Fam2.1 aminoacylation ribozyme variant] | 20.8 | 3.4 | 8.46 | 3.38 | 7.76 | 6.21
14 | AUAACCCUGGUCAUCGAGUUA [Fam2.1 aminoacylation ribozyme variant] | 4.86 | 1.7 | 2.5 | 1.34 | 2.86 | 1.12
15 | AUAACCCUGGUCAUCGCGUGA [Fam2.1 aminoacylation ribozyme variant] | 103 | 6.85 | 16 | 7.96 | 18.2 | 18.7
16 | AUAACCCUGGUCAUCGGGUGA [Fam2.1 aminoacylation ribozyme variant] | 183 | 12.1 | 31.3 | 13.4 | 35.6 | 35.3
17 | AUAACCCUGGUCAUGGAGUGA [Fam2.1 aminoacylation ribozyme variant] | 14.6 | 2.6 | 4.2 | 2.48 | 4.08 | 4.89
18 | AUAACCGUGGUCAUCGAGUGA [Fam2.1 aminoacylation ribozyme variant] | 25.1 | 2.64 | 5.06 | 2.85 | 5.49 | 6.26
19 | AUAAGCCUGGUCAUCGAGUGA [Fam2.1 aminoacylation ribozyme variant] | 29.4 | 4.71 | 6.25 | 4.25 | 7.06 | 9.48
20 | AUAAUCCUGGUCAUCGAGUGA [Fam2.1 aminoacylation ribozyme variant] | 9.11 | 3.72 | 7.24 | 3.48 | 6.95 | 7.96
21 | AUACAACUAGGUCAUCGGGUG [Fam2.2 aminoacylation ribozyme variant] | 34.4 | 3.32 | 5.2 | 3.22 | 6.09 | 5.27
22 | AUACACAUAGGUCAUCGGGUG [Fam2.2 aminoacylation ribozyme variant] | 40.3 | 3.69 | 5.61 | 3.83 | 6.21 | 6.66

Row | Sequence | self-aminoacylation (biotinyl-Phe-oxazolone) | self-aminoacylation (biotinyl-Ile-oxazolone) | self-aminoacylation (biotinyl-Met-oxazolone) | self-aminoacylation (biotinyl-Val-oxazolone) | self-aminoacylation (biotinyl-Leu-oxazolone) | self-aminoacylation (biotinyl-Trp-oxazolone)
23 | AUACACCUAGGCCAUCGGGUG [Fam2.2 aminoacylation ribozyme variant] | 12.9 | 2.73 | 2.42 | 2.32 | 3.51 | 3.66
24 | AUACACCUAGGUCAUCCGGUG [Fam2.2 aminoacylation ribozyme variant] | 30.6 | 3.5 | 3.91 | 3.14 | 6.81 | 5.38
25 | AUACACCUAGGUCAUCGGGUC [Fam2.2 aminoacylation ribozyme variant] | 7.44 | 1.08 | 1.31 | 1.29 | 1.57 | 1.18
26 | AUACACCUAGGUCAUUGGGUG [Fam2.2 aminoacylation ribozyme variant] | 13.3 | 2.02 | 2.36 | 2.24 | 2.14 | 3.17
27 | AUACACCUAGGUCCUCGGGUG [Fam2.2 aminoacylation ribozyme variant] | 21.8 | 3.44 | 2.71 | 3.57 | 3.48 | 3.71
28 | AUACACCUAGGUCUUCGGGUG [Fam2.2 aminoacylation ribozyme variant] | 23.2 | 2.7 | 2.71 | 3.04 | 3.72 | 2.64
29 | AUACACCUAGUUCAUCGGGUG [Fam2.2 aminoacylation ribozyme variant] | 4.89 | 2.33 | 1.73 | 2.19 | 1.78 | 3.48
30 | AUACACUUAGGUCAUCGGGUG [Fam2.2 aminoacylation ribozyme variant] | 36.6 | 3.82 | 5.5 | 3.3 | 6.18 | 5.82
31 | AUACAUCUAGGUCAUCGGGUG [Fam2.2 aminoacylation ribozyme variant] | 24.4 | 3.19 | 4.39 | 2.85 | 4.8 | 5.51
32 | AUACUCCAAACAAUCGGUCUG [Fam1A.1 aminoacylation ribozyme variant] | 1.98 | 0.827 | 0.759 | 0.743 | 0.534 | 1.61
33 | AUACUUCAAACAAUCGGACUG [Fam1A.1 aminoacylation ribozyme variant] | 3.32 | 0.748 | 0.548 | 0.666 | 0.522 | 2.34
34 | AUACUUCAAACAAUCGGUUUG [Fam1A.1 aminoacylation ribozyme variant] | 12.9 | 1.05 | 0.91 | 1.06 | 1.14 | 9.98
35 | AUACUUCAAACAAUGGGUCUG [Fam1A.1 aminoacylation ribozyme variant] | 0.774 | 0.935 | 0.862 | 0.921 | 0.847 | 0.934
36 | AUACUUCAAACACUCGGUCUG [Fam1A.1 aminoacylation ribozyme variant] | 1.31 | 1.06 | 0.83 | 0.821 | 0.917 | 0.981
37 | AUACUUCAAACAUUCGGUCUG [Fam1A.1 aminoacylation ribozyme variant] | 1.19 | 1.18 | 1.09 | 1.1 | 1.09 | 1.11
38 | AUACUUCACACAAUCGGUCUG [Fam1A.1 aminoacylation ribozyme variant] | 1.15 | 0.901 | 0.927 | 0.861 | 0.683 | 0.814
39 | AUAGCCCUGGUCAUCGAGUGA [Fam2.1 aminoacylation ribozyme variant] | 78.5 | 8.62 | 19.9 | 7.53 | 20.3 | 21.6
40 | AUCAACCUAGGUCAUCGGGUG [Fam2.2 aminoacylation ribozyme variant] | 36.3 | 4.88 | 7.11 | 5.02 | 10.2 | 7.85
41 | AUCACCAUGGUCAUCGAGUGA [Fam2.1 aminoacylation ribozyme variant] | 58.9 | 5.49 | 10.3 | 5.56 | 11.7 | 13.2
42 | AUCACCCGGGUCAUCGAGUGA [Fam2.1 aminoacylation ribozyme variant] | 51.8 | 3.65 | 7.5 | 4.32 | 7.28 | 8.12
43 | AUCACCCUGGACAUCGAGUGA [Fam2.1 aminoacylation ribozyme variant] | 68.7 | 3.98 | 9.05 | 4.56 | 10.4 | 8.8
